Several values for one entry are separate records, joined by “and”; a condition that tells them apart may be missing. Equal entries are not always repeated. Where two headings read alike, the source gives them in different places.
Assays:
[1] = molecular target: T1, Acro S1 spike protein (SARS-CoV-2) (SARS-CoV-2, UniProt P0DTC2 16-685); assay: SPR (Carterra LSA)
[2] = molecular target: T2, S1 variant B.1.1.7: UK (Acro) spike protein (SARS-CoV-2, UniProt P0DTC2 16-1213); assay: SPR (Carterra LSA)
[3] = molecular target: T3, C52Hk S. African variant (Acro) spike protein (SARS-CoV-2, UniProt P0DTC2 16-1213); assay: SPR (Carterra LSA)
[4] = molecular target: T4, C52Hg Brazilian variant (Acro) spike protein (SARS-CoV-2, UniProt P0DTC2 16-1213); assay: SPR (Carterra LSA)
[5] = molecular target: California Variant W152C_L452R_D614G
[6] = molecular target: T1, Acro S1 spike protein (SARS-CoV-2)
[7] = molecular target: T2, S1 variant B.1.1.7: UK (Acro) spike …
[8] = molecular target: T4, C52Hg Brazilian variant (Acro) spike …
[9] = molecular target: Delta variant (Acro) spike protein (SARS-CoV-2, UniProt P0DTC2 16-1213)
[10] = molecular target: T2, S1 variant B.1.1.7: UK (Acro) spike …; assay: SPR (Carterra LSA); […]; 1:1 model; […]
[11] = molecular target: T3, C52Hk S. African variant (Acro) spike …; assay: SPR (Carterra LSA); […]; 1:1 model; […]
[12] = molecular target: T4, C52Hg Brazilian variant (Acro) spike …; assay: SPR (Carterra LSA); […]; 1:1 model; […]
[13] = molecular target: T2, S1 variant B.1.1.7: UK (Acro) spike …; assay: SPR (Carterra LSA); antibody on chip, spike protein as analyte; summary table
[14] = molecular target: T3, C52Hk S. African variant (Acro) spike …; assay: as above
[15] = molecular target: T4, C52Hg Brazilian variant (Acro) spike …; assay: as above
[16] = molecular target: T1, Acro S1 spike protein (SARS-CoV-2); assay: SPR (Carterra LSA); […]; 1:1 model; […]
[17] = molecular target: T1, Acro S1 spike protein (SARS-CoV-2); assay: SPR (Carterra LSA); antibody on chip, spike protein as analyte; summary table

B1: Antibody 1-20 (Fc fusion)
chain: EVQLVESGGGLVQPGGSLRLSCAASGRTFRRYTMGWFRQAPGKEREFVASITSSGVNAYADSVKGRFTISADNSKNTAYLQMNSLKPEDTAVYYCAKEDVGKPFDWGQDTLVTVSS
binding result [1]: no binding
binding result [2]: no binding
binding result [3]: no binding
binding result [4]: no binding

B2: Antibody 1-8 (Fc fusion)
chain: EVQLVESGGGLVQPGGSLRLSCAASGRTLSRYTMGWFRQAPGKEREFVASITSGGTTNYADSVKGRFTISADNSKNTAYLQMNSLKPEDTAVYYCAKEDVGKPFDWGQGTLVTVSS
IC50 [5]: 2.72 nM
Kd [6]: 2.22 nM and 4.13 nM
koff [6]: 0.000412 s⁻¹ and 0.000662 s⁻¹
kon [6]: 186000 M⁻¹ s⁻¹ and 160000 M⁻¹ s⁻¹
Kd [7]: 3.2 nM
koff [7]: 0.000572 s⁻¹
kon [7]: 179000 M⁻¹ s⁻¹
Kd [8]: 2.53 nM and 1.9 nM
koff [8]: 0.000158 s⁻¹ and 0.00011 s⁻¹
kon [8]: 62400 M⁻¹ s⁻¹ and 58000 M⁻¹ s⁻¹
Kd [9]: 2.39 nM and 3.18 nM
koff [9]: 0.000409 s⁻¹ and 0.000318 s⁻¹
kon [9]: 171000 M⁻¹ s⁻¹ and 100000 M⁻¹ s⁻¹
Kd [10]: 2.26 nM
koff [10]: 0.0007 s⁻¹
kon [10]: 310000 M⁻¹ s⁻¹
Kd [11]: 1 nM
koff [11]: 0.00057 s⁻¹
kon [11]: 570000 M⁻¹ s⁻¹
Kd [12]: 0.321 nM
koff [12]: 0.00017 s⁻¹
kon [12]: 530000 M⁻¹ s⁻¹
Kd [13]: 2.26 nM
Kd [14]: 1 nM
Kd [15]: 0.321 nM

B3: Antibody 1-6 (Fc fusion)
chain: EVQLVESGGGLVQPGGSLRLSCAASGSISSINVMGWFRQAPGKEREWMGVMAYDGSTYYADSVKGRFTISADNSKNTAYLQMNSLKPEDTAVYYCAAFDGYSGSDWGQGTLVTVSS
binding result [1]: no binding
binding result [2]: no binding
binding result [3]: no binding
binding result [4]: no binding

B4: Antibody 1-10 (Fc fusion)
chain: EVQLVESGGGLVQPGSSLRLSCAASGGTFSSIGMGWFRQAPGKEREFVAAISWDGGATAYADSVKGRFTISADNSKNTAYLQMNSLKPEDTAVYYCAKEDVGKPFDWGQGTLVTVSS
IC50 [5]: 0.13 nM
Kd [6]: 2.6 nM
koff [6]: 0.00053 s⁻¹ and 0.000728 s⁻¹
kon [6]: 280000 M⁻¹ s⁻¹
Kd [7]: 0.33 nM and 0.27 nM
koff [7]: 2.54e-05 s⁻¹ and 2.32e-05 s⁻¹
kon [7]: 77000 M⁻¹ s⁻¹ and 86000 M⁻¹ s⁻¹
Kd [9]: 7.43 nM and 5.43 nM
koff [9]: 0.000706 s⁻¹ and 0.000516 s⁻¹
kon [9]: 95000 M⁻¹ s⁻¹
Kd [16]: 1.96 nM
koff [16]: 0.00053 s⁻¹
kon [16]: 270000 M⁻¹ s⁻¹
Kd [10]: 0.481 nM
koff [10]: 0.00013 s⁻¹
kon [10]: 270000 M⁻¹ s⁻¹
Kd [11]: 13.9 nM
koff [11]: 0.00089 s⁻¹
kon [11]: 64000 M⁻¹ s⁻¹
Kd [12]: 127 nM
koff [12]: 0.00081 s⁻¹
kon [12]: 6400 M⁻¹ s⁻¹
Kd [17]: 1.95 nM
Kd [13]: 0.481 nM
Kd [14]: 13.9 nM
Kd [15]: 127 nM

B5: Antibody 1-3 (Fc fusion)
chain: EVQLVESGGGLVQPGGSLRLSCAASGTTFRINVMGWFRQAPGKEREFVAGISWTGGSTIYADSVKGRFTISADNSKNTAYLQMNSLKPEDTAVYYCAAFDGYSGSDWGQGTLVTVSS
binding result [1]: no binding
binding result [2]: no binding
binding result [3]: no binding
binding result [4]: no binding

B6: Antibody 1-11 (Fc fusion)
chain: EVQLVESGGGLVQPGGSLRLSCAASGFTFDDYVMGWFRQAPGKEREFVAVISWTGESTLYADSVKGRFTISADNSKNTAYLQMNSLKPEDTAVYYCAAFDGYSGSDWGQGTLVTVSS
Kd [11]: 5 nM
koff [11]: 0.0019 s⁻¹
kon [11]: 380000 M⁻¹ s⁻¹
Kd [12]: 4.67 nM
koff [12]: 0.0014 s⁻¹
kon [12]: 300000 M⁻¹ s⁻¹
Kd [14]: 5 nM
Kd [15]: 4.67 nM

B7: Antibody 1-21 (Fc fusion)
chain: EVQLVESGGGLVQPGGSLRLSCAASGPTFSIYAMGWFRQAPGKERELVAGISWNGGSTNYADSVKGRFTISADNSKNTAYLQMNSLKPEDTAVYYCAAFDGYTGSDWGQGTLVTVSS
binding result [1]: no binding
binding result [2]: no binding
binding result [3]: no binding
binding result [4]: no binding

B8: Antibody 1-15 (Fc fusion)
chain: EVQLVESGGGLVQPGGSLRLSCAASGGIFSDMFMGWFRQAPGKEREFVATIDWSGDTAFYADSVKGRFTISADNSKNTAYLQMNSLKPEDTAVYYCAVDLSGDAVYDWGQGTLVTVSS
IC50 [5]: 66.7 nM
Kd [6]: 5.43 nM and 10.9 nM
koff [6]: 0.000339 s⁻¹ and 0.000547 s⁻¹
kon [6]: 62400 M⁻¹ s⁻¹ and 50200 M⁻¹ s⁻¹
Kd [7]: 0.708 nM and 0.82 nM
koff [7]: 5.5e-05 s⁻¹
kon [7]: 77700 M⁻¹ s⁻¹
koff [8]: 1e-05 s⁻¹
Kd [16]: 10.4 nM
koff [16]: 0.00094 s⁻¹
kon [16]: 90000 M⁻¹ s⁻¹
Kd [10]: 0.828 nM
koff [10]: 0.00024 s⁻¹
kon [10]: 290000 M⁻¹ s⁻¹
Kd [11]: 1.04 nM
koff [11]: 0.00028 s⁻¹
kon [11]: 270000 M⁻¹ s⁻¹
Kd [12]: 1.04 nM
koff [12]: 0.00028 s⁻¹
kon [12]: 270000 M⁻¹ s⁻¹
Kd [17]: 10.4 nM
Kd [13]: 0.828 nM
Kd [14]: 1.4 nM
Kd [15]: 1.04 nM

B9: Antibody 1-2 (Fc fusion)
chain: EVQLVESGGGLVQPGGSLRLSCAASGGSEYSYSTFSSFVMGWFRQAPGKERELVASISWSGGHTFYADSVKGRFTISADNSKNTAYLQMNSLKPEDTAVYYCAAYLRGPYYSSFYDSTKYEWGQGTLVTVSS
Kd [16]: 2.41 nM
koff [16]: 0.00053 s⁻¹
kon [16]: 220000 M⁻¹ s⁻¹
Kd [17]: 2.41 nM

B10: Antibody 1-13 (Fc fusion)
chain: EVQLVESGGGLVQPGGSLRLSCAASGRTTFSSYTMGWFRQAPGKEREFVASITRSGVLNYADSVKGRFTISADNSKNTAYLQMNSLKPEDTAVYYCAKEDVGKPFDWGQGTLVTVSS
Kd [16]: 18.2 nM
koff [16]: 0.0031 s⁻¹
kon [16]: 170000 M⁻¹ s⁻¹
Kd [10]: 5.18 nM
koff [10]: 0.00088 s⁻¹
kon [10]: 170000 M⁻¹ s⁻¹
Kd [17]: 18.2 nM
Kd [13]: 5.18 nM

B11: Antibody 1-17 (Fc fusion)
chain: EVQLVESGGGLVQPGGSLRLSCAASGRTIVPYTMGWFRQAPGKEREEVAAISTGGGGTYYADSVKGRFTISADNSKNTAYLQMNSLKPEDTAVYYCAVDGPFGWGQGTLVTVSS
Kd [16]: 5.15 nM
koff [16]: 0.0017 s⁻¹
kon [16]: 330000 M⁻¹ s⁻¹
Kd [17]: 5.15 nM

B12: Antibody 1-16 (Fc fusion)
chain: EVQLVESGGGLVQPGGSLRLSCAASGRTYAMGWFRQAPGKERELVAEITAGGSTYYADSVKGRFTISADNSKNTAYLQMNSLKQEDTAVYYCAVDGPFGWGQGTLVTVSS
Kd [10]: 1.06 nM
koff [10]: 0.00037 s⁻¹
kon [10]: 350000 M⁻¹ s⁻¹
Kd [12]: 4.79 nM
koff [12]: 0.0034 s⁻¹
kon [12]: 710000 M⁻¹ s⁻¹
Kd [13]: 1.06 nM
Kd [15]: 4.79 nM

B13: Antibody 1-14 (Fc fusion)
chain: EVQLVESGGGLVQPGGSLRLSCAASGFTPDDYAMGWFRQAPGKEREFVAAINWSGVTTYHYYADSVKGRFTISADNSKNTAYLQMNSLKPEDTAVYYCASDESDAANWGQGTLVTVSS
binding result [1]: no binding
binding result [2]: no binding
binding result [3]: no binding
binding result [4]: no binding

B14: Antibody 1-19 (Fc fusion)
chain: EVQLVESGGGLVQPGGSLRLSCAASGFTFSDYAMGWFRQAPGKEREVVARIYWSSANTYYADSVKGRFTISADNSKNTAYLQMNSLKPEDTAVYYCATYGYDSGRYYSWGQGTLVTVSS
binding result [1]: no binding
binding result [2]: no binding
binding result [3]: no binding
binding result [4]: no binding

Reference: patent US20230192819A1 (TWIST BIOSCIENCE, published 2023)
